Assay results taken from patent US20250101111A1.

How the values were obtained:
[1] = target: human FcγRIIIa-158F (human) (UniProt P08637); test: SPR (IBIS MX96), FcγR captured on sensor, full-length IgG1 titrated, pH 6.0, equilibrium 1:1 fit
[2] = target: human FcγRIIa-131H (human) (UniProt P12318); test: as above
[3] = target: human FcγRIIIa-158V (human) (UniProt P08637); test: as above
[4] = target: human FcγRIIIb-NA1 (human) (UniProt O75015); test: as above
human FcγRIa (human) [5] = target: human FcγRIa (human) (UniProt P12314); test: as above
[6] = target: human FcγRIIa-131R (human) (UniProt P12318); test: as above
[7] = target: human FcγRIIIb-NA2 (human) (UniProt O75015); test: as above
human FcγRIIb (human) [8] = target: human FcγRIIb (human) (UniProt P31994); test: as above
[9] = target: human FcγRIIIa-158F (human) (UniProt P08637); test: SPR (IBIS MX96), FcγR captured on sensor, full-length IgG1 titrated, pH 7.4, equilibrium 1:1 fit
[10] = target: human FcγRIIa-131H (human) (UniProt P12318); test: as above
[11] = target: human FcγRIIIa-158V (human) (UniProt P08637); test: as above
[12] = target: human FcγRIIIb-NA1 (human) (UniProt O75015); test: as above
human FcγRIa (human) [13] = target: human FcγRIa (human) (UniProt P12314); test: as above
[14] = target: human FcγRIIa-131R (human) (UniProt P12318); test: as above
[15] = target: human FcγRIIIb-NA2 (human) (UniProt O75015); test: as above
human FcγRIIb (human) [16] = target: human FcγRIIb (human) (UniProt P31994); test: as above

Sequence of human FcγRIIIa-158F (human) (P08637 17-208 limits assumed): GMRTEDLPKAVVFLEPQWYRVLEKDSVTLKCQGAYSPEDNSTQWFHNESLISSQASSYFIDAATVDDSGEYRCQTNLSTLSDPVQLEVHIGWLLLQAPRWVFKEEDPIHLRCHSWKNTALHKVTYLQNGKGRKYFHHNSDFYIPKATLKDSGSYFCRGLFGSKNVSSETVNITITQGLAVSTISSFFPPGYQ
Sequence of human FcγRIIa-131R (human) (P12318 34-218 H167R limits assumed): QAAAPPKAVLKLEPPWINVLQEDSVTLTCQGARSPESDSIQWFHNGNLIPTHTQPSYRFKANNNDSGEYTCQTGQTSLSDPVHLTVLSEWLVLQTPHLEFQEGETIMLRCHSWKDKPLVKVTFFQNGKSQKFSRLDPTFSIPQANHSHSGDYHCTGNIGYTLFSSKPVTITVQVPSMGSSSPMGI
Sequence of human FcγRIIIb-NA1 (human) (O75015 other isoform, or with tags, fused parts or gaps limits assumed): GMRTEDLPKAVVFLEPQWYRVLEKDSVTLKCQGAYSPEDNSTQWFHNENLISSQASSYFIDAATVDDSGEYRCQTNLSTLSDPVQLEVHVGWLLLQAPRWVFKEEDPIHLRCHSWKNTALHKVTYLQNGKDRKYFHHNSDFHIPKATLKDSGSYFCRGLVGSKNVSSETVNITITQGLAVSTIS
Sequence of human FcγRIIb (human) (P31994 43-217 limits assumed): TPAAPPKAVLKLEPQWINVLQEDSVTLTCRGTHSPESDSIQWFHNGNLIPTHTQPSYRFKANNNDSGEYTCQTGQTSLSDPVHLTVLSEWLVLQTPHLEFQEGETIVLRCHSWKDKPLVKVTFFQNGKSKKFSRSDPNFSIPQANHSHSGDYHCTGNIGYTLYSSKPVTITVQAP
Sequence of human FcγRIIIb-NA2 (human) (O75015 17-200 N65S limits assumed): as the sequence (O75015 other isoform, or with tags, fused parts or gaps limits assumed) above, with R20S, N49S, D66N, V90I counted along it
Sequence of human FcγRIa (human) (P12314 16-288 limits assumed): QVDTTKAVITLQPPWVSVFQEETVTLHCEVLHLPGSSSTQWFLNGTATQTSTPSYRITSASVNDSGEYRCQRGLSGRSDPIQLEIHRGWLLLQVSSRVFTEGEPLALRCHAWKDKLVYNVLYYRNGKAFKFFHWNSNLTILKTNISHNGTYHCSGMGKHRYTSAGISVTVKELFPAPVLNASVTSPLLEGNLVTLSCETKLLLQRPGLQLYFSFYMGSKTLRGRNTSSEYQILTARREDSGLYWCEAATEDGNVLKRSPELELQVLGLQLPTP
Sequence of human FcγRIIa-131H (human) (P12318 34-218 limits assumed): as the sequence (P12318 34-218 H167R limits assumed) above, with R134H counted along it
Sequence of human FcγRIIIa-158V (human) (P08637 17-208 F176V limits assumed): as the sequence (P08637 17-208 limits assumed) above, with F160V counted along it

Kd [1] [nM] | Kd [2] [nM] | Kd [3] [nM] | Kd [4] [nM] | Kd (human FcγRIa (human) [5]) [nM] | Kd [6] [nM] | Kd [7] [nM] | Kd (human FcγRIIb (human) [8]) [nM] | Kd [9] [nM] | Kd [10] [nM] | Kd [11] [nM] | Kd [12] [nM] | Kd (human FcγRIa (human) [13]) [nM] | Kd [14] [nM] | Kd [15] [nM] | Kd (human FcγRIIb (human) [16]) [nM] | Substance
102 | 1020 | 17.8 | > 2000 | 33.3 | 1990 | 625 | > 2000 | 80.7 | 1000 | 16.6 | 617 | 32.9 | 1010 | 552 | > 2000 | IgG1-WT-afuc (antibody)
894 | 455 | 337 | > 2000 | 27 | 920 | > 2000 | > 2000 | > 2000 | 668 | 382 | > 2000 | 7.1 | 953 | > 2000 | > 2000 | IgG1-WT (antibody)
 | 141 | 491 | > 2000 | 63.3 | 358 |  | > 2000 |  | 126 |  | > 2000 | 13.2 | 241 |  | > 2000 | IgG1-G236A (antibody)
 |  |  |  | > 2000 |  |  |  |  |  |  |  | > 2000 |  |  |  | IgG1-ΔG236 (antibody)
